Among the data in PMC7704496, “RNA and DNA Binding Epitopes of the Cold Shock Protein TmCsp from the Hyperthermophile Thermotoga maritima” are Kd values, retold here.

One data set deals with T1, TmCsp (cold shock protein) (Thermotoga maritima, UniProt O54310 1-66). Put plainly: Trp fluorescence quenching; 343 K; EMSA: 50 mM NaH2PO4 pH 6.5, 20 mM NaCl, 0.2 mM EDTA, room temperature 1 h, 20% gel in 1xTBE at 4 C; NMR: 50 mM sodium phosphate pH 6.5, 20 mM NaCl, 0.2 mM EDTA. Particulars: protein: recombinant; tags: none stated; chain copies: 2; label: none (5'-fluorescein in EMSA); single strand.
T1 sequence (O54310 whole entry): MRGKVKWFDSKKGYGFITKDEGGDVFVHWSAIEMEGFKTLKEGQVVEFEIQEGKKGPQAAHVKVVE
By Kd is commonly meant the equilibrium constant for the complex coming apart. As for GGGGGGG (ssDNA) [(dG)7], the Kd came out at 5.6 ± 0.1 µM.
The same measure, in the same setting: the figure for TTTTTTT (ssDNA) [(dT)7] is 1.6 ± 0.04 µM; for CCCCCCC (ssDNA) [(dC)7] it is 11 ± 0.1 µM; for UUUUUUU (ssRNA) [(rU)7] it is 17.4 ± 0.1 µM.

The next data set concerns the target T1, TmCsp (cold shock protein). The data set can be described thus: Trp fluorescence quenching; 303 K; EMSA: 50 mM NaH2PO4 pH 6.5, 20 mM NaCl, 0.2 mM EDTA, room temperature 1 h, 20% gel in 1xTBE at 4 C; NMR: 50 mM sodium phosphate pH 6.5, 20 mM NaCl, 0.2 mM EDTA. To be noted: protein: recombinant; tags: none stated; chain copies: 2; label: none (5'-fluorescein in EMSA); single strand. Background: Mobility shift assays separate free from complexed probe on a gel.
GGGGGGG (ssDNA) [(dG)7]: the Kd worked out at 3.4 ± 0.1 µM.
Still for that read-out and setting: the same measure for AAAAAAA (ssDNA) [(dA)7]: 5 ± 0.2 µM; for TTTTTTT (ssDNA) [(dT)7]: 0.004 ± 0.0002 µM.
CCCCCCC (ssDNA) [(dC)7]: the Kd is 2.8 ± 0.1 µM.
With UUUUUUU (ssRNA) [(rU)7], the Kd was found to be 0.0108 ± 0.0008 µM.

For a further data set, the target named is T1, TmCsp (cold shock protein). The data set can be described thus: Trp fluorescence quenching; 323 K; EMSA: 50 mM NaH2PO4 pH 6.5, 20 mM NaCl, 0.2 mM EDTA, room temperature 1 h, 20% gel in 1xTBE at 4 C; NMR: 50 mM sodium phosphate pH 6.5, 20 mM NaCl, 0.2 mM EDTA. To be noted: protein: recombinant; tags: none stated; chain copies: 2; label: none (5'-fluorescein in EMSA); single strand.
With TTTTTTT (ssDNA) [(dT)7], the Kd was determined as 0.44 ± 0.02 µM.
The same measure, in the same setting: the same measure for UUUUUUU (ssRNA) [(rU)7]: 1.52 ± 0.01 µM.
